Source: FireProtDB (doi:10.1021/bi0115028)
“And” between values parts separate entries of the source, which are not always exact repeats. Identical values can stand only once.

Details: Bos taurus, 25 °C, NaCl 2 M, whole UniProt chain shown
[1] = pH 2.3, GdnHCl, Absorbance, H3PO4, NaOH
[2] = pH 2.3, GdnHCl, CD, H3PO4, NaOH
[3] = pH 6.2, GdnHCl, Absorbance, KH2PO4-Na2HPO4
[4] = pH 6.2, GdnHCl, CD, KH2PO4-Na2HPO4
[5] = pH 6.2, Urea, Absorbance, KH2PO4-Na2HPO4
[6] = pH 6.2, Urea, CD, KH2PO4-Na2HPO4
[7] = pH 8.3, GdnHCl, Absorbance, KHPO4-Na2HPO4/NaOH
[8] = pH 8.3, GdnHCl, CD, KHPO4-Na2HPO4/NaOH
[9] = pH 8.3, Urea, Absorbance, KHPO4-Na2HPO4/NaOH
[10] = pH 8.3, Urea, CD, KHPO4-Na2HPO4/NaOH

B1: Beta-lactoglobulin wild type, P02754 (protein)
chain: MKCLLLALALTCGAQALIVTQTMKGLDIQKVAGTWYSLAMAASDISLLDAQSAPLRVYVEELKPTPEGDLEILLQKWENGECAQKKIIAEKTKIPAVFKIDALNENKVLVLDTDYKKYLLFCMENSAEPEQSLACQCLVRTPEVDDEALEKFDKALKALPMHIRLSFNPTQLEEQCHI
[1]
  denaturant m value: 3.9 kcal/mol/M
  denaturant midpoint (higher = more stable): 3.4 M
  unfolding free energy: 13.4 kcal/mol
[2]
  denaturant m value: 3.8 kcal/mol/M and 4.4 kcal/mol/M
  denaturant midpoint (higher = more stable): 3.5 M
  unfolding free energy: 13 kcal/mol and 15.2 kcal/mol
[3]
  denaturant m value: 2.5 kcal/mol/M
  denaturant midpoint (higher = more stable): 2.7 M
  unfolding free energy: 8.4 kcal/mol
[4]
  denaturant m value: 3.3 kcal/mol/M and 2.5 kcal/mol/M
  denaturant midpoint (higher = more stable): 2.9 M and 2.7 M
  unfolding free energy: 9.5 kcal/mol and 6.9 kcal/mol
[5]
  denaturant m value: 0.9 kcal/mol/M
  denaturant midpoint (higher = more stable): 4.1 M
  unfolding free energy: 3.7 kcal/mol
[6]
  denaturant m value: 0.7 kcal/mol/M and 0.6 kcal/mol/M
  denaturant midpoint (higher = more stable): 3.5 M and 2.1 M
  unfolding free energy: 2.3 kcal/mol and 1.4 kcal/mol
[7]
  denaturant m value: 3.2 kcal/mol/M
  denaturant midpoint (higher = more stable): 2.3 M
  unfolding free energy: 7.6 kcal/mol
[8]
  denaturant m value: 3 kcal/mol/M and 3.4 kcal/mol/M
  denaturant midpoint (higher = more stable): 2 M
  unfolding free energy: 5.9 kcal/mol and 6.9 kcal/mol
[9]
  denaturant m value: 1.1 kcal/mol/M
  denaturant midpoint (higher = more stable): 3.5 M
  unfolding free energy: 4 kcal/mol
[10]
  denaturant m value: 1.5 kcal/mol/M and 1.4 kcal/mol/M
  denaturant midpoint (higher = more stable): 4.4 M and 3.6 M
  unfolding free energy: 6.4 kcal/mol and 5 kcal/mol
